Measured values reported in US8088609 (DANISCO US, dated 2012).
Changes are numbered by the printed parent chain.

T1: Purified CEA (Biodesign International) (UniProt P06731 35-685)
T1 construct: Bought purified antigen, immobilized on 96-well plates at 5 ug/ml; also called carcinoembryonic antigen; target protein CEA
T1 sequence: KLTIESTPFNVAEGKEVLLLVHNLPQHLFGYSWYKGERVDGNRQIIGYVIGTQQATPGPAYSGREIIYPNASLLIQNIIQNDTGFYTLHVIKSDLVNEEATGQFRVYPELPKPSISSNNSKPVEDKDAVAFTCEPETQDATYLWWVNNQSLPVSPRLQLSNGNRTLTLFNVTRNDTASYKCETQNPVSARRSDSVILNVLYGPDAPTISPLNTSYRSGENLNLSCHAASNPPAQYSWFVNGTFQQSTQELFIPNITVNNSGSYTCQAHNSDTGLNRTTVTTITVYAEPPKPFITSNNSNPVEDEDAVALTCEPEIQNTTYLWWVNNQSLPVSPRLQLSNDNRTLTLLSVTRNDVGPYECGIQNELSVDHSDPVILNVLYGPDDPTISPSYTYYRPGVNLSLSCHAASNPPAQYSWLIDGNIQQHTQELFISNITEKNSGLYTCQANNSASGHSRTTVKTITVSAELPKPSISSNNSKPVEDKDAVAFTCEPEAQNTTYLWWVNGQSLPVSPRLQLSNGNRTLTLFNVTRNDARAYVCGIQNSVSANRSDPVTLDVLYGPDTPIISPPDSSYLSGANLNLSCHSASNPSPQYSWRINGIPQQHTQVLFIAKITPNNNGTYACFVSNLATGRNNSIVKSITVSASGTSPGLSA

B1: CAB1.11 molecule (scFv)
chain: DIVLTQSPASLSVSLGQRATMSCRAGESVDIFGVGFLHWYQQKPGQPPKLLIYRASNLESGIPVRFSGTGSGTDFTLIIDPVEADDVATYYCQQTNEDPYTFGGGTKLEIKGGGGSGGGGSGGGGSGGGGSGGGGSGGGGSEVQLQQSGAELVEPGASVKLSCTASGFNIKDTYMHWVKQRPEQGLEWIGRIDPANGNSKYVPKFQGKATITADTSSNTAYLQLTSLTSEDTAVYYCAPFGYYVSDYAMAYWGQGTSVTVSSTPVSEKQLAEVVANTITPLMKAQSVPGMAVAVIYQGKPHYYTFGKADIAANKPVTPQTLFELGSISKTFTGVLGGDAIARGEISLDDAVTRYWPQLTGKQWQGIRMLDLATYTAGGLPLQVPDEVTDNASLLRFYQNWQPQWKPGTTRLYANASIGLFGALAVKPSGMPYEQAMTTRVLKPLKLDHTWINVPKAEEAHYAWGYRDGKAVRVSPGMLDAQAYGVKTNVQDMANWVMANMAPENVADASLKQGIALAQSRYWRIGSMYQGLGWEMLNWPVEANTVVETSFGNVALAPLPVAEVNPPAPPVKASWVHKTGSTGGFGSYVAFIPEKQIGIVMLANTSYPNPARVEAAYHILEALQ
notes: scFv-BLA fusion; also called HR14.8; clone HR14.8
B2: CAB1.11i molecule (scFv)
chain: B1 chain with K283A, S586A
notes: Single-chain fusion of a T84.66-derived anti-CEA scFv (vL-(GGGGS)6-vH) to deimmunized beta-lactamase (BLA); also called encoded by plasmid pHR19.2

Legend:
[1] = molecular target: T1, Purified CEA (Biodesign International); experiment: plate assay: CEA immobilized at 5 ug/ml, serially diluted B-Per extract, bound CAB read by nitrocefin hydrolysis at 490 nm
[2] = molecular target: T1, Purified CEA (Biodesign International); experiment: plate assay: purified CEA immobilized at 5 ug/ml, 2-fold dilutions of purified CAB1.11i, bound BLA activity read with nitrocefin at 490 nm

Binder | binding result [1] | binding result [2]
B1 | binds | 
B2 |  | binds
